The values that follow come from US20210380703A1 (RIGEL PHARMACEUTICALS, published 2021).

Assay [1] deals with T1, Human ACVR2A (human, UniProt P27037 20-135, limits assumed).
T1 construct: also called activin receptor, type II A
The experiment in a line: ELISA. An outline of the steps: (§1)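 ELISA measured binding of ACVR2A-specific monoclonal antibodies to human and mouse ACVR2A. Biotinylated goat anti-human kappa light chain served as positive control and human Fc as negative control.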

The target in assay [2] is Mouse ACVR2A (mouse, UniProt P27038 20-135, limits assumed). Kind of assay: ELISA. A digest of the protocol:
as §1
In general terms: An ELISA detects its analyte on a solid surface through an enzyme-linked reagent.

Assay [3] deals with T2, Goat anti-Human Kappa.
T2 construct: Positive control; also called biotinylated goat anti-human kappa light chain
Kind of assay: ELISA; positive control. An outline of the steps: (§2)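 Monoclonal antibodies were first applied to human or mouse ACVR2A, alongside biotinylated goat anti-human kappa light chain (positive control) and human Fc (negative control); binding was then determined by ELISA.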

Assay [4] has as its target human ACVR2A (human, UniProt P27037 20-135, limits assumed). The experiment in a line: ELISA. A digest of the protocol:
as §1

Assay [5] has as its target mouse ACVR2A (mouse, UniProt P27038 20-135, limits assumed). Kind of assay: ELISA. A digest of the protocol: as §1
Assay [6] addresses T3, biotinylated goat anti-human kappa light chain.
T3 construct: Positive control of the ELISA
Kind of assay: ELISA; positive control. A digest of the protocol: as §2
Note: test concentration or dose not given here.

human ACVR2A, sequence (P27037 20-135 limits assumed): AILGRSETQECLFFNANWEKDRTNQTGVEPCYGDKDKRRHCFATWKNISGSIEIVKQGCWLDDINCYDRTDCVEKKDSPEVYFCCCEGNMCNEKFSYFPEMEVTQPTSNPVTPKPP
T1 sequence (P27037 20-135 limits assumed): as above
Mouse ACVR2A, sequence (P27038 20-135 limits assumed): as the sequence (P27037 20-135 limits assumed) above, with K20R, V73I counted along it
mouse ACVR2A, sequence (P27038 20-135 limits assumed): as the sequence (P27037 20-135 limits assumed) above, with K20R, V73I counted along it

B1: 365_C12 (antibody, V domains shown)
VH: EVQLLESGGGLVQPGGSLRLSCAASGFTFSSYGMNWVRQAPGKGLEWVAGINYNSGYKSYADSVKGRFTISRDNSKNTLYLQMNSLRAEDTAVYYCARSANWHDTALDYWGQGTLVTVSS
VL: DIQMTQSPSSLSASVGDRVTITCRASQSIVSYVNWYQQKPGKAPKLVIYAVTSLASGVPSRFSGSGSGTDFTLTISSLQPEDFATYYCQQSYDTPLTFGGGTKVEIK
notes: VH/VL only
Regarding B1, the optical density in assay [1] stood at 1.92 OD; in assay [2], 2.04 OD; in assay [3] it was 3.58 OD.

B2: 366_A07 (antibody, V domains shown)
VH: EVQLLESGGGLVQPGGSLRLSCAASGFTFSSYGMHWVRQAPGKGLEWVASINYNGGYTGYADSVKGRFTISRDNSKNTLYLQMNSLRAEDTAVYYCARSANWHDTALDYWGQGTLVTVSS
VL: DIQMTQSPSSLSASVGDRVTITCRASQSIVSYVNWYQQKPGKAPKLVIYAATSRHSGVPSRFSGSGSGTDFTLTISSLQPEDFATYYCQQSYESPLTFGGGTKVEIK
notes: VH/VL only
As to B2, the optical density amounted to 2.42 OD in assay [1], 2.68 OD in assay [2] and 3.37 OD in assay [3].

B3: 366_H09 (antibody, V domains shown)
VH: EVQLLESGGGLVQPGGSLRLSCAASGFTFDSYGMNWVRQAPGKGLEWVSNINYNSGYKGYADSVKGRFTISRDNSKNTLYLQMNSLRAEDTAVYYCARSANWHDTALDYWGQGTLVTVSS
VL: DIQMTQSPSSLSASVGDRVTITCRASQSIVSYVNWYQQKPGKAPKLVIYATTSRASGVPSRFSGSGSGTDFTLTISSLQPEDFATYYCQQSYSSPLTFGGGTKVEIK
notes: VH/VL only
In the case of B3, the figures for the optical density in assay [1], in assay [2] and in assay [3] were 2.1 OD, 2.44 OD and 3.42 OD, respectively.

B4: 365_H03 (antibody, V domains shown)
VH: EVQLLESGGGLVQPGGSLRLSCAASGFTFDDYGMNWVRQAPGKGLEWVAGINYNGGYKSYADSVKGRFTISRDNSKNTLYLQMNSLRAEDTAVYYCARSANWHDTALDYWGQGTLVTVSS
VL: DIQMTQSPSSLSASVGDRVTITCRASQSILSYVNWYQQKPGKAPKLVIYAATSLHSGVPSRFSGSGSGTDFTLTISSLQPEDFATYYCQQSYNNPLTFGGGTKVEIK
notes: VH/VL only
Turning to B4, the figures for the optical density in assay [1], in assay [2] and in assay [3] were 2.32 OD, 2.65 OD and 3.27 OD, respectively.

B5: 365_F01 (antibody, V domains shown)
VH: EVQLLESGGGLVQPGGSLRLSCAASGFTFDSYSMNWVRQAPGKGLEWVSGINYNSGYKGYADSVKGRFTISRDNSKNTLYLQMNSLRAEDTAVYYCARSANWHDTHLDYWGQGTLVTVSS
VL: DIQMTQSPSSLSASVGDRVTITCRASQSIVSYLNWYQQKPGKAPKLVIYAATSLASGVPSRFSGSGSGTDFTLTISSLQPEDFATYYCQQSYELPLTFGGGTKVEIK
notes: VH/VL only
In the case of B5, the optical density in assay [1] came to 2.51 OD; in assay [2], 2.47 OD; in assay [3], 3.51 OD.

B6: 367_B02 (antibody, V domains shown)
VH: EVQLLESGGGLVQPGGSLRLSCAASGFTFDSYGMNWVRQAPGKGLEWVSSINYNGGYTSYADSVKGRFTISRDNSKNTLYLQMNSLRAEDTAVYYCARSANWHDTALDYWGQGTLVTVSS
VL: not shown
notes: VH/VL only
Take B6: the values for the optical density in assay [1], in assay [2] and in assay [3] were 2.29 OD, 2.42 OD and 3.53 OD, respectively.

B7: 370_A09 (antibody, V domains shown)
VH: EVQLLESGGGLVQPGGSLRLSCAASGFTFSSYSMNWVRQAPGKGLEWVAGINYNGGYTGYADSVKGRFTISRDNSKNTLYLQMNSLRAEDTAVYYCARSATWHDTHLDYWGQGTLVTVSS
VL: DIQMTQSPSSLSASVGDRVTITCRASQSILTYLNWYQQKPGKAPKLVIYAATSRASGVPSRFSGSGSGTDFTLTISSLQPEDFATYYCQQSYDTPLTFGGGTKVEIK
notes: VH/VL only
In the case of B7, the optical density came out at 3.46 OD in assay [4], 3.27 OD in assay [5] and 3.58 OD in assay [6].

B8: 366_E10 (antibody, V domains shown)
VH: EVQLLESGGGLVQPGGSLRLSCAASGFTFDSYGMNWVRQAPGKGLEWVSGINYNGGYKGYADSVKGRFTISRDNSKNTLYLQMNSLRAEDTAVYYCARSANWHDTHLDYWGQGTLVTVSS
VL: DIQMTQSPSSLSASVGDRVTITCRASQSILSYVNWYQQKPGKAPKLVIYAATSRHSGVPSRFSGSGSGTDFTLTISSLQPEDFATYYCQQSYSLPLTFGGGTKVEIK
notes: VH/VL only
Consider B8, for which the values for the optical density in assay [1], in assay [2] and in assay [3] were 2.35 OD, 2.39 OD and 3.45 OD, respectively.

B9: 366_G05 (antibody, V domains shown)
VH: EVQLLESGGGLVQPGGSLRLSCAASGFTFDSYGMNWVRQAPGKGLEWVSNINYNGGYTSYADSVKGRFTISRDNSKNTLYLQMNSLRAEDTAVYYCARSANWHDTALDYWGQGTLVTVSS
VL: DIQMTQSPSSLSASVGDRVTITCRASQSIISYVNWYQQKPGKAPKLVIYAATSRASGVPSRFSGSGSGTDFTLTISSLQPEDFATYYCQQSYENPLTFGGGTKVEIK
notes: VH/VL only
Take B9: the results for the optical density in assay [1], in assay [2] and in assay [3] were 2.21 OD, 2.5 OD and 3.26 OD, respectively.

B10: 366_H07 (antibody, V domains shown)
VH: EVQLLESGGGLVQPGGSLRLSCAASGFTFSSYGMHWVRQAPGKGLEWVSGINYNGGYTSYADSVKGRFTISRDNSKNTLYLQMNSLRAEDTAVYYCARSANWHDTALDYWGQGTLVTVSS
VL: DIQMTQSPSSLSASVGDRVTITCRASQSIISYVNWYQQKPGKAPKLVIYAVTSRASGVPSRFSGSGSGTDFTLTISSLQPEDFATYYCQQSYENPLTFGGGTKVEIK
notes: VH/VL only
Turning to B10, the optical density in assay [1] was found to be 2.53 OD; in assay [2], 2.67 OD; in assay [3], 3.6 OD.

B11: 365_B09 (antibody, V domains shown)
VH: EVQLLESGGGLVQPGGSLRLSCAASGFTFDSYSMNWVRQAPGKGLEWVAGINYNSGYKSYADSVKGRFTISRDNSKNTLYLQMNSLRAEDTAVYYCARSATWHDTHLDYWGQGTLVTVSS
VL: DIQMTQSPSSLSASVGDRVTITCRASQSILRYLNWYQQKPGKAPKLLIYAATSLHSGVPSRFSGSGSGTDFTLTISSLQPEDFATYYCQQSYDNPLTFGGGTKVEIK
notes: VH/VL only
With B11, the optical density was 3.26 OD in assay [4], 3.32 OD in assay [5] and 3.28 OD in assay [6].

B12: 365_B03 (antibody, V domains shown)
VH: EVQLLESGGGLVQPGGSLRLSCAASGFTFSSYSMNWVRQAPGKGLEWVAGINYNGGYTGYADSVKGRFTISRDNSKNTLYLQMNSLRAEDTAVYYCARSATWHDTHLDYWGQGTLVTVSS
VL: DIQMTQSPSSLSASVGDRVTITCRASQSIVSYLNWYQQKPGKAPKLLIYAATSRASGVPSRFSGSGSGTDFTLTISSLQPEDFATYYCQQSYENPLTFGGGTKVEIK
notes: VH/VL only
Consider B12, for which the optical density in assay [4] was 2.65 OD; in assay [5], 2.53 OD; in assay [6], 3.38 OD.

B13: 365_C07 (antibody, V domains shown)
VH: EVQLLESGGGLVQPGGSLRLSCAASGFTFSDYGMNWVRQAPGKGLEWVASINYNGGYTSYADSVKGRFTISRDNSKNTLYLQMNSLRAEDTAVYYCARSATWHDTALDYWGQGTLVTVSS
VL: DIQMTQSPSSLSASVGDRVTITCRASQSIVSYVNWYQQKPGKAPKLLIYAATSRASGVPSRFSGSGSGTDFTLTISSLQPEDFATYYCQQSYDTPLTFGGGTKVEIK
notes: VH/VL only
Consider B13, for which the optical density was 1.94 OD in assay [4], 1.92 OD in assay [5] and 3.17 OD in assay [6].

B14: 365_A10 (antibody, V domains shown)
VH: EVQLLESGGGLVQPGGSLRLSCAASGFTFSSYGMHWVRQAPGKGLEWVAGINYNSGYTSYADSVKGRFTISRDNSKNTLYLQMNSLRAEDTAVYYCARSATWHDTHLDYWGQGTLVTVSS
VL: DIQMTQSPSSLSASVGDRVTITCRASQSILTYLNWYQQKPGKAPKLVIYAVTSLASGVPSRFSGSGSGTDFTLTISSLQPEDFATYYCQQSYDSPLTFGGGTKVEIK
notes: VH/VL only
Regarding B14, the optical density in assay [4] amounted to 2.19 OD; in assay [5] it was 2.49 OD; in assay [6], 3.45 OD.

B15: 365_A07 (antibody, V domains shown)
VH: EVQLLESGGGLVQPGGSLRLSCAASGFTFSSYGMNWVRQAPGKGLEWVAGINYNSGYKGYADSVKGRFTISRDNSKNTLYLQMNSLRAEDTAVYYCARSATWHDTHLDYWGQGTLVTVSS
VL: DIQMTQSPSSLSASVGDRVTITCRASQSIVSYLNWYQQKPGKAPKLLIYAATSRASGVPSRFSGSGSGTDFTLTISSLQPEDFATYYCQQSYNLPLTFGGGTKVEIK
notes: VH/VL only
With B15, the optical density worked out at 2.24 OD in assay [4], 2.25 OD in assay [5] and 3.41 OD in assay [6].

B16: 365_C09 (antibody, V domains shown)
VH: EVQLLESGGGLVQPGGSLRLSCAASGFTFSDYGMNWVRQAPGKGLEWVSGINYNGGYKSYADSVKGRFTISRDNSKNTLYLQMNSLRAEDTAVYYCARSATWHDTHLDYWGQGTLVTVSS
VL: DIQMTQSPSSLSASVGDRVTITCRASQSIVSYVNWYQQKPGKAPKLLIYAATSRASGVPSRFSGSGSGTDFTLTISSLQPEDFATYYCQQSYDTPLTFGGGTKVEIK
notes: VH/VL only
B16: the results for the optical density in assay [4], in assay [5] and in assay [6] were 2.05 OD, 2.18 OD and 3.27 OD, respectively.

B17: 365_A01 (antibody, V domains shown)
VH: EVQLLESGGGLVQPGGSLRLSCAASGFTFSDYGMNWVRQAPGKGLEWVAGINYNGGYTSYADSVKGRFTISRDNSKNTLYLQMNSLRAEDTAVYYCARSATWHDTHLDYWGQGTLVTVSS
VL: DIQMTQSPSSLSASVGDRVTITCRASQSILTYVNWYQQKPGKAPKLVIYATTSLASGVPSRFSGSGSGTDFTLTISSLQPEDFATYYCQQSYSTPLTFGGGTKVEIK
notes: VH/VL only
Turning to B17, the optical density came to 2.77 OD in assay [4], 2.9 OD in assay [5] and 3.51 OD in assay [6].
